Laboratory results from patent US20240139239A1.

Biological target: OVA peptide 323-339 presented on MHC-II molecules (Gallus gallus (Chicken)) (UniProt P01012)

**Q.** For “T cell receptor of OT-II CD4+ T cells, specific for ovalbumin (OVA) peptide presented in the context of MHC-II molecules (TCR)”, which proliferation (CTVlow) of OT-II CD4+ T cells after 5 days of co-culture with peptide-loaded PIP-induced cells is on record?
**A.** 10.7%
